Measured values: EP4342487A2, “PHARMACEUTICAL COMPOSITION COMPRISING GIP DERIVATIVE OR LONG-ACTING CONJUGATE THEREOF FOR PREVENTING OR TREATING PULMONARY DISEASE” (Hanmi Pharm. Co., Ltd., priority 2021, dated 2022)
Where no end group is shown, it is not given here. [ ]: non-standard residue; d: D form. Aib = CC(C)(N)C(=O)O

T1: human GIP receptor (human, UniProt P48546 22-466)
T1 sequence (looked up): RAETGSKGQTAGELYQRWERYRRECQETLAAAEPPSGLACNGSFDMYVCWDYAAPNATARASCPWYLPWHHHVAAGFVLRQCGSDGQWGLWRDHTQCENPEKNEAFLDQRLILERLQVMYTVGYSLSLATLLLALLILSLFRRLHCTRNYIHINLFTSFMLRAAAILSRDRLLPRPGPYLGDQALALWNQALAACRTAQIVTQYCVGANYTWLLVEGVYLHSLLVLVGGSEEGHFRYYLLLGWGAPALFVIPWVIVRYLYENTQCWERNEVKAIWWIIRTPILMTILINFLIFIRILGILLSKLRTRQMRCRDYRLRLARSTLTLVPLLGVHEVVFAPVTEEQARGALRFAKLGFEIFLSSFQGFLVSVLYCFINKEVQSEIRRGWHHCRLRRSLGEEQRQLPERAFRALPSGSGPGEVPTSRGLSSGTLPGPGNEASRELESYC


Molecular target: T1, human GIP receptor
Assay: cell-based or functional assay

Binder | In vitro activity (%) of GIP derivatives compared to human native GIP in human GIP receptors (EC50 from accumulated cAMP, CHO cells expressing the human GIP receptor)
Y[Aib]EGTFISDYSIYLDAQAA[Aib]DFVNWLLAGGPSSGAPPPSC (not fully specified) [GIP derivative of SEQ ID NO: 8] | 1.9%
Y[Aib]EGTFISDYSIYLDKQAA[Aib]EFVQWLIAGHPSSGAPPPC (not fully specified) [GIP derivative of SEQ ID NO: 26] | 66.7%
Y[Aib]EGTFISDYSIYLDKQAA[Aib]EFVNWLLAGHPSSGAPPPSC (not fully specified) [GIP derivative of SEQ ID NO: 22] | 71.6%
Y[Aib]EGTFISDYSIAMDGIAQQDFVNWLLAQKPSSGAPPPSC (not fully specified) [GIP derivative of SEQ ID NO: 16] | 11.3%
Y[Aib]EGTFISDYSIAMDAIAQQDFVNWLLAQKPSSGAPPPSC (not fully specified) [GIP derivative of SEQ ID NO: 1] | 49.3%
Y[Aib]EGTFISDYSIALEKQAQQDFVNWLLAGGPSSGAPPPSC (not fully specified) [GIP derivative of SEQ ID NO: 17] | 111%
Y[Aib]EGTFISDYSIYLDKQAA[Aib]EFVNWLLAQKC (not fully specified) [GIP derivative of SEQ ID NO: 13] | 31.1%
Y[Aib]EGTFISDYSIYLDAQAAKEFIAWLLAGGPSSGAPPPSC (not fully specified) [GIP derivative of SEQ ID NO: 10] | 13.9%
Y[Aib]EGTFISDYSI[Aib]LDKQAA[Aib]EFVNWLL[Aib]GGPSSGAPPPSC (not fully specified) [GIP derivative of SEQ ID NO: 21] | 123%
Y[Aib]EGTFISDYSI[Aib]MDAIAQQDFVNWLLAGGPSSGAPPPSC (not fully specified) [GIP derivative of SEQ ID NO: 3] | 15.6%
Y[Aib]EGTFISDYSIYMDAIAQQDFVNWLLAGGPSSGAPPPSC (not fully specified) [GIP derivative of SEQ ID NO: 4] | 10.5%
Y[Aib]EGTFISDYSIYLDKQAQKEFVNWLL[Aib]GGPSSGAPPPSC (not fully specified) [GIP derivative of SEQ ID NO: 23] | 87.6%
Y[Aib]EGTFISDYSIQMDAIAQQDFVNWLLAGGPSSGAPPPSC (not fully specified) [GIP derivative of SEQ ID NO: 5] | 12.1%
Y[Aib]EGTFISDYSIYLDKQAAQEFVNWLLAQKPSSGAPPPSC (not fully specified) [GIP derivative of SEQ ID NO: 18] | 13.6%
Y[Aib]EGTFISDYSIYLDKQAA[Aib]EFVQWLI[Aib]GGPSSGAPPPSC (not fully specified) [GIP derivative of SEQ ID NO: 25] | 78.3%
Y[Aib]EGTFISDYSIYLDAQAQQDFVNWLLAGGPSSGAPPPSC (not fully specified) [GIP derivative of SEQ ID NO: 7] | 19.6%
Y[Aib]EGTFISDYSIAMDKIAQQDFVNWLLAQKPSSGAPPPSC (not fully specified) [GIP derivative of SEQ ID NO: 15] | 31.1%
Y[Aib]EGTFISDYSI[Aib]LDKQAA[Aib]EFVNWLL[Aib]GHPSSGAPPPSC (not fully specified) [GIP derivative of SEQ ID NO: 24] | 183%
Y[Aib]EGTFISDYSIYLDAQAAKDFVNWLLAGGPSSGAPPPSC (not fully specified) [GIP derivative of SEQ ID NO: 9] | 2%
Y[Aib]EGTFISDYSIYLDKQAA[Aib]EFVNWLL[Aib]GGPSSGAPPPSC (not fully specified) [GIP derivative of SEQ ID NO: 20] | 75.3%
Y[Aib]EGTFISDYSIAMDAIAQQDFVNWLLAQKGKKNDWKHNITQC (not fully specified; printed as YAibEGT FISDYSIAMDAIAQQDFVNWLLAQKGKKNDWKHNITQC) [GIP derivative of SEQ ID NO: 11] | 122%
Y[Aib]EGTFISDYSIYLDAIAQQDFVNWLLAGGPSSGAPPPSC (not fully specified) [GIP derivative of SEQ ID NO: 6] | 17.4%
Y[Aib]EGTFISDYSIYLDKQAA[Aib]EFVNWLL[Aib]GHPSSGAPPPSC (not fully specified) [GIP derivative of SEQ ID NO: 19] | 66.7%
Y[Aib]EGTFISDYSIAMDAIAQQDFVNWLLAGGPSSGAPPPSC (not fully specified) [GIP derivative of SEQ ID NO: 2] | 13.9%
Y[Aib]EGTFISDYSIYLDAQAA[Aib]EFVNWLLAQKC (not fully specified) [GIP derivative of SEQ ID NO: 14] | 17.4%
